This is an account of results in the supplement of paper PMC9112550, “Optimization of the antimicrobial peptide Bac7 by deep mutational scanning” (BMC Biology, 2022).

The test system of this series is Escherichia coli TOP10. The series can be described thus: shrunken log2 fold change of peptide-encoding DNA abundance (4.5 h post-induction vs induction); higher = less antimicrobial activity (less host growth inhibition). Particulars: time post-induction: 4.5 h; library: site-saturation at positions 5, 18, 19, 20.
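Further: peptides expressed intracellularly from a pBAD plasmid library in pooled LB shake-flask culture, induced with 0.3% L-arabinose, DNA abundance read by NGS, three biological replicates, DESeq2 with apeglm shrinkage.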

Turning to RRIRRRPPRLPRPRPRPDSTPRP, the “shrunken log2 fold change” value was 0.187. Then RRIRRRPPRLPRPRPRPWKQPRP, with -0.0204; and RRIRMRPPRLPRPRPRPPIMPRP, with 0.0866. Then RRIRMRPPRLPRPRPRPVAPPRP, with 0.945; and RRIRARPPRLPRPRPRPQQVPRP, with 0.0996. Then RRIRPRPPRLPRPRPRPIYTPRP, with -0.245; and RRIRSRPPRLPRPRPRPAPWPRP, with 0.528. As for RRIRARPPRLPRPRPRPKQGPRP, the “shrunken log2 fold change” value was found to be 0.373. RRIRRRPPRLPRPRPRPRMAPRP: the “shrunken log2 fold change” value stood at 0.294.

Regarding RRIRFRPPRLPRPRPRPDWMPRP, the “shrunken log2 fold change” value is -0.0628.

As to RRIRARPPRLPRPRPRPWKVPRP, the “shrunken log2 fold change” value is -0.279.

For the sequence RRIRGRPPRLPRPRPRPKVYPRP, the “shrunken log2 fold change” value was -0.0773. Take RRIRKRPPRLPRPRPRPEQCPRP: the “shrunken log2 fold change” value was found to be 0.025. With RRIRARPPRLPRPRPRPSIAPRP the figure was 0.186; with RRIRTRPPRLPRPRPRPYIHPRP, -0.779. Then RRIRCRPPRLPRPRPRPCYTPRP, with -0.397; and RRIRSRPPRLPRPRPRPEFVPRP, with 0.00503. RRIRCRPPRLPRPRPRPNSLPRP: the “shrunken log2 fold change” value is -0.0801. For the sequence RRIRKRPPRLPRPRPRPIAVPRP, the “shrunken log2 fold change” value was determined as 0.131. Then RRIRWRPPRLPRPRPRPYDSPRP, with -0.377; and RRIRRRPPRLPRPRPRPLNPPRP, with -0.00196; and RRIRWRPPRLPRPRPRPNYYPRP, with -0.705.

For RRIRNRPPRLPRPRPRPYFTPRP, the “shrunken log2 fold change” value is -0.47. With RRIRKRPPRLPRPRPRPGLGPRP the figure was 0.406; with RRIRNRPPRLPRPRPRPTEVPRP, -0.268; with RRIRIRPPRLPRPRPRPRNRPRP, -0.125. Then RRIRWRPPRLPRPRPRPFPAPRP, with 0.342; and RRIRLRPPRLPRPRPRPTASPRP, with 0.0857; and RRIRMRPPRLPRPRPRPAYYPRP, with -0.3. With RRIRLRPPRLPRPRPRPYCKPRP the figure was -0.736; with RRIRRRPPRLPRPRPRPTDIPRP, -0.771; with RRIRRRPPRLPRPRPRPLHDPRP, 0.359. In the case of RRIRVRPPRLPRPRPRPLSWPRP, the “shrunken log2 fold change” value stood at 0.0819. For the sequence RRIRFRPPRLPRPRPRPETRPRP, the “shrunken log2 fold change” value was 0.159.

Turning to RRIRQRPPRLPRPRPRPAAKPRP, the “shrunken log2 fold change” value was -0.0272. Then RRIRIRPPRLPRPRPRPVAPPRP, with 0.244; and RRIRFRPPRLPRPRPRPVFPPRP, with -0.224; and RRIRHRPPRLPRPRPRPNYDPRP, with -0.471. Then RRIRVRPPRLPRPRPRPHLYPRP, with -0.309; and RRIRVRPPRLPRPRPRPTPGPRP, with 0.258; and RRIRCRPPRLPRPRPRPMGKPRP, with 0.0173. Then RRIRCRPPRLPRPRPRPSSRPRP, with -0.459; and RRIRRRPPRLPRPRPRPAAHPRP, with 0.361.

Take RRIRPRPPRLPRPRPRPNVSPRP: the “shrunken log2 fold change” value was -0.0557. Then RRIRQRPPRLPRPRPRPFKLPRP, with -0.152; and RRIRWRPPRLPRPRPRPCQVPRP, with -0.0191. For the sequence RRIRARPPRLPRPRPRPTWLPRP, the “shrunken log2 fold change” value is 0.33.

On to RRIRQRPPRLPRPRPRPYNCPRP, for which the “shrunken log2 fold change” value is -0.92. With RRIRKRPPRLPRPRPRPDNDPRP the figure was -0.00188; with RRIRCRPPRLPRPRPRPIHQPRP, -0.304.
